The source of these data is US20040197325A1 (PDL BIOPHARMA, published 2004).

Experiment [1] concerns the target T1, GPR64 protein (SEQ ID NO:2) (UniProt Q8IZP9 38-1017).
T1 chain: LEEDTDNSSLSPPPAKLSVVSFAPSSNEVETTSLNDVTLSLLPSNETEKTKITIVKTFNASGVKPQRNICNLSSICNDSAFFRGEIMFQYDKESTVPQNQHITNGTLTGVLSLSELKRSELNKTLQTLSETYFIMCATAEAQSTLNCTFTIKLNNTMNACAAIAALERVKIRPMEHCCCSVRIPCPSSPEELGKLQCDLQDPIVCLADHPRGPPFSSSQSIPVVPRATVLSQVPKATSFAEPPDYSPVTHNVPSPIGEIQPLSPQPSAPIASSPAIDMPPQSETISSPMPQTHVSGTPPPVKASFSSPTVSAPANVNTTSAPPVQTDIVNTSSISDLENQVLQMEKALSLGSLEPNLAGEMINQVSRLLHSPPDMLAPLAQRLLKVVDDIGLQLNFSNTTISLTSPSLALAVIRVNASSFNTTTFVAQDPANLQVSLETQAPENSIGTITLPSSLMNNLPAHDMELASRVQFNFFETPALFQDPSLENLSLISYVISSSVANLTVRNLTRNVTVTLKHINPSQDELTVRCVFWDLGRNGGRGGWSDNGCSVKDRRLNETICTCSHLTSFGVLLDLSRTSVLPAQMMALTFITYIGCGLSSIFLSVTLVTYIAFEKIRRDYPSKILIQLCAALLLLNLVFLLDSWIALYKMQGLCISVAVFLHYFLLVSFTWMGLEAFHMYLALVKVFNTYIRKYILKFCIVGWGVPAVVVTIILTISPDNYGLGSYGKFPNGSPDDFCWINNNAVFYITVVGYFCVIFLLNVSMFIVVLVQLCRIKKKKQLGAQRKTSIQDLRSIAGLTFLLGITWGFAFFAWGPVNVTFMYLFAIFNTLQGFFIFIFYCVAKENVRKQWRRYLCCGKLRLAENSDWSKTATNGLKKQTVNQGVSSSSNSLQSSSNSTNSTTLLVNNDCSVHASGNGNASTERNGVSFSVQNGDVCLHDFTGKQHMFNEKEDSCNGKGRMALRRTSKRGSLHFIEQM
Put plainly: FACS. For orientation: Flow cytometry measures light scatter and fluorescence of single cells or particles in a stream.

Experiment [2] concerns the target T2, GPR64 protein (SEQ ID NO:2) (human, UniProt Q8IZP9 38-1017).
T2 construct: Endogenous GPR64 on human tumor cells (NCI-H460) or in tissue sections; also called Ov1; HE6
Put plainly: competitive FACS on H460 cells, confirmed by Biacore. The method, then: Epitope mapping was performed by competitive FACS assay. Briefly, H460 cells were incubated with 25 ug/ml unlabeled antibody for 1 hr on ice, at which time various amounts of FITC labeled antibody was added. After 30 additional minutes, cells were washed one time and fluorescence was measured by flow cytometry. All data was confirmed by Biacore.
For orientation: Surface plasmon resonance follows binding to a sensor surface in real time, without labels.

Experiment [3] concerns the target T3, human GPR64-Fc fusion protein (human, UniProt Q8IZP9 38-591).
T3 construct: Immunogen, and the analyte in the Biacore kinetics
Nature of the experiment: affinity screen of Example 4 (Biacore/FACS); form of the target not restated.

B1: GPR64-18 (antibody, V domains shown)
VH: QVSLKESGPGILQPSQTLSLTCSFSGFSLSTSGMGVSWIRQPSGKGLEWLAHIYWDDDKRYNPSLKSRLTISKDTSSNLVFLKITSVDTADTATYYCARREVRRDYYAMDYWGQGTSVTVSS
VL: SIVMTQTPKFLLVSAGDRITIACRASQSVSNDVAWYQQKPGQSPKLLINYTSNRYTGVPDRFTGSGYGTDFTFTISTVQAEDLAVYFCQQAYSSPWTFGGGTKLEIK
notes: Mouse monoclonal antibody raised against GPR64-Fc; also called GPR64-18 antibody
One may read the EC50 as the concentration needed to bring the measured effect to its halfway point. Higher therefore signals weaker potency. In the case of B1, the half-maximal effective concentration (EC50) in experiment [1] is ~4 nM. Further, the binding result in experiment [2] and in experiment [3] was “binds” each time.
